Data on eleven molecules can be found in US20090060916A1 (published 2009).

Numbering of substitutions follows the chain as printed. Several values for one entry are separate records, joined by “and”; a condition that tells them apart may be missing. Equal values may be shown once. Read-outs that look alike come from different tables or passages of the source.

Usually IC50 stands for the midpoint of a concentration-inhibition curve. A lower IC50 goes with greater potency. As usually defined, the EC50 is the concentration needed to bring the measured effect to its halfway point. Higher therefore signals a need for much substance. Usually Kd stands for the constant that tells how readily two partners part at equilibrium. Lower therefore signals a tighter complex.

Assay [1] deals with T1, human IL-4 (human, UniProt P05112 25-153, biotinylated in the receptor binding assay and on the Biacore chip).
T1 construct: also called interleukin-4; biotinylated IL-4
T1 sequence (looked up): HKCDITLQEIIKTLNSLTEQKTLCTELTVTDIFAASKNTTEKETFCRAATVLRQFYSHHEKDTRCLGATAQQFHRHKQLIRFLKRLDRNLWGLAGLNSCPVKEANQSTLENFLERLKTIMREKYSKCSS
The assay is described as follows: Biacore SPR, biotinylated IL-4 on SA chip, co-inject. As for the experimental part: Analytes were passed over the antigen-coated flow-cell, with in-line referencing against a blank flow-cell, at a flow rate of 30 μl/min in HBS-EP running buffer (Biacore). The first dAb was injected, followed immediately by injection of the second dAb using the Biacore's co-inject function.

The target of assay [2] is T1, human IL-4. The experiment in a line: screening of the affinity maturation output; IL-4 RBA and cell assay.
Another assay concerns the target T2, rhesus IL-4 (rhesus, UniProt P51492 25-153).
T2 sequence (looked up): T1 sequence (looked up) with K2N, D4H, T6A, Q8R, K12E, E26K, V29I, F33L, N111D
The assay is described as follows: inferred from TF-1 proliferation with rhesus IL-4. As for the experimental part:
(§1) The mixture was incubated for 72 hours at 37° C. 5% CO₂. […] 96® reagent (colorometric reagent for determining viability, Promega, Madison, USA) was then added and the number of cells per well was quantified by measuring the absorbance at 490 nm.
(§2) A dose-response of the dAb will determine the ND50 in this set up.

Assay [3] concerns the target T1, human IL-4. The experiment in a line: IL-4 RBA: ELISA, IL-4R/Fc coated, biotinylated IL-4. The text has this:
(§3) The wells were washed three times with 0.1% (v/v) Tween 20 in PBS, followed by three washes with PBS, before blocking with 2% (w/v) BSA in PBS. […] The reaction was stopped by the addition of HCl and the absorbance read at 450 nm.
On the technique in general: An ELISA detects its analyte on a solid surface through an enzyme-linked reagent.

In another assay the target is T3, cynomolgous IL-4 (cynomolgous, UniProt P79339 25-153).
T3 construct: also called Cyno IL-4
T3 sequence: T1 sequence (looked up) with E26K, V29I, F33L
The experiment in a line: inferred from TF-1 proliferation with cynomolgous IL-4. The protocol:
as §1, §2

The target of assay [4] is T1, human IL-4. The experiment in a line: cell-based or functional assay.
The target in assay [5] is T1, human IL-4. The experiment in a line: IL-4 RBA: ELISA, IL-4R/Fc coated, biotinylated IL-4.
Text: as §3
The source holds these as a separate data set.

The target in assay [6] is T1, human IL-4. The assay is described as follows: cell-based or functional assay. This is another data set of the same source.
Assay [7] has as its target variant IL-13 (R130Q) (human), P35225. The experiment in a line: cell-based or functional assay.
The target of assay [8] is T4, human IL-13 (human, UniProt P35225 35-146, biotinylated on the Biacore chip). The experiment in a line: cell-based or functional assay.
T4 sequence (P35225 35-146 limits assumed): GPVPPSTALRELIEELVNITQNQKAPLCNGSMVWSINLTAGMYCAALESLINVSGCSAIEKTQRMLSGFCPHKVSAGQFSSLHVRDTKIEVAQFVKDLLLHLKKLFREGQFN
In assay [9] the target is T4, human IL-13. The experiment in a line: IL-13 receptor alpha2 RBA, competition. As for the experimental part: (§4) The plate was incubated for seven hours before being read in the 8200 cellular detection system (Applied Biosystems).
The target in assay [10] is T4, human IL-13. The experiment in a line: IL-13 receptor alpha2 RBA, competition. As for the experimental part:
as §4
The source holds these as a separate data set.

In assay [11] the target is T4, human IL-13. The experiment in a line: Biacore SPR, IL-13 surface. (SPR reads the build-up and loss of mass on a sensor chip optically.)
Assay [12] concerns the target T4, human IL-13. The experiment in a line: IL-13 sandwich ELISA, competition with coating antibody. As for the experimental part: (§5) A MAXISORP™ plate (high protein binding ELISA plate, Nunc, Denmark) was coated overnight with 2.5 μg/ml coating antibody (Module Set, Bender MedSystems, Vienna, Austria), then washed once with 0.05% (v/v) Tween 20 in PBS before blocking with 0.5% (w/v) BSA 0.05% (v/v) Tween 20 in PBS. […] The plate was then incubated with TMB substrate (KPL, Gaithersburg, USA), and the reaction was stopped by the addition of HCl and the absorbance read at 450 nm.

In assay [13] the target is T4, human IL-13. The assay is described as follows: cell-based or functional assay. The source holds these as a separate data set.
Assay [14] concerns the target T5, cynomolgous IL-13 (cynomolgous, UniProt Q0PW92 19-132, The Biacore assay used biotinylated cIL-13 according to our card. The biotin cannot be carried in the letters.). The experiment in a line: cell-based or functional assay.
In assay [15] the target is T5, cynomolgous IL-13. The experiment in a line: Biacore SPR, biotinylated cynomolgous IL-13 on SA chip. The protocol:
(§6) 50 to 100 ul of the diluted supernatant was injected (kininject) at 50 ul/min flow rate, followed by a 5 minute dissociation phase. Association and dissociation off-rates and constants were calculated using BIAevaluation software v4.1 (Biacore).

In assay [16] the target is T4, human IL-13. The experiment in a line: Biacore SPR, biotinylated human IL-13 on SA chip. The protocol: as §6
The target of assay [17] is T4, human IL-13. The assay is described as follows: IL-13 RBA.
For assay [18], the target named is T4, human IL-13. The assay is described as follows: cell-based or functional assay. This is another data set of the same source.
The target in assay [19] is T4, human IL-13. The assay is described as follows: DOM10 RBA (IL-13 sandwich ELISA per paragraph 473). As for the experimental part: as §5
These in-line fusions were constructed and expressed as described above. […] After this incubation, the level of cell proliferation was determined.

Assay [20] addresses T4, human IL-13. The experiment in a line: IL-13 BIAcore binding assay.
Assay [21] concerns the target T4, human IL-13. The assay is described as follows: cell-based or functional assay. The source holds these as a separate data set.
Assay [22] addresses T4, human IL-13. The assay is described as follows: IL-13 BIAcore binding assay. The source holds these as a separate data set.
Assay [23] addresses T4, human IL-13. The assay is described as follows: cell-based or functional assay. This is another data set of the same source.

T5 sequence (Q0PW92 entry or part of it limits assumed, form in doubt): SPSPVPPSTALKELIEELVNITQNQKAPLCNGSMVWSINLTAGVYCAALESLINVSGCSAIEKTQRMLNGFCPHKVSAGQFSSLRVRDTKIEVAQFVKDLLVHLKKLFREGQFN
Sequence of variant IL-13 (R130Q) (human), P35225 (P35225 35-146, stated change not applied): as the sequence (P35225 35-146 limits assumed) above

B1: DOM9-155-1 (other)
VL: DIQMTQSPSSLSASVGDRVTITCRASLDIGDWLHWYQQKPGKAPKLLIGWGSGLQSGVPSRFSGSGSGTDFTLTISSLQPEDFATYYCLQEGWGPPTFGQGTKVEIKR
notes: Vk dAb
Regarding B1, the binding result with human IL-4 [1] is on record as “binds”.

B2: DOM9-155-77 (other)
VL: B1 VL with L27R, D28H, G30S, G49P, G51A, Q55W
notes: Vk dAb
As to B2, the binding result with human IL-4 [2] and with rhesus IL-4 was “binds” in each case.

B3: DOM9-155-25 (other)
VL: B1 VL with L27R, D28P, G30S, G49A, G51A, G53T, Q55D
notes: Vk dAb
Regarding B3, in the assay with human IL-4 [3], the IC50 is 0.73 nM and 1 nM. Besides, the binding result with rhesus IL-4 and in the assay with cynomolgous IL-4 was “binds” throughout.

B4: DOM9-44-502 (other)
VL: DIQMTQSPSSLSASVGDRVTITCRASQNINFWLRWYQQKPGKAPTLLIYDASRSQSGVPSRFSGSGSGTDFTLTISSLQPEDFATYYCQQDLMPPYTFGQGTKVEIKR
notes: Vk dAb
B4: the “ND50, IL-4 induced TF-1 cell proliferation” value with human IL-4 [4] was 4.5 nM. The IC50 in the assay with human IL-4 [3] was 5.5 nM and 8.6 nM and 4.1 nM and 3.6 nM; in the assay with human IL-4 [5], 4 nM. Also, in the assay with human IL-4 [6], the “average inhibition of HDM induced PBMC proliferation, 100 nM dAb, responding donors” value turned out to be 38%.

B5: DOM10-53-316 (other)
VH: GVQLLESGGGLVQPGGSLRLSCAASGFIFAWYDMGWARQAPGKGLEWVSSIDWHGEVTYYADSVKGRFTISRDNSKNTLYLQMNSLRAEDTAVYYCATAEDEPGYDYWGQGTLVTVSS
notes: VH dAb
Molecule B5 had an IC50, TF-1 proliferation with variant IL-13 (R130Q) in [7] of 0.52 nM. Also, the “IC50, TF-1 proliferation with human IL-13” value with human IL-13 [8] was 0.39 nM. Besides, the concentration for half-maximal inhibition (IC50) in the assay with human IL-13 [9] was 1.2 nM; in the assay with human IL-13 [10] it was 2 nM.

B6: DOM10-53-386 (other)
VH: B5 VH with A37V, E56K, V57I
notes: VH dAb
Take B6: the binding result with human IL-13 [11] is recorded as “binds”.

B7: DOM10-53-474 (other)
VH: B5 VH with I28T, A37V
notes: VH dAb
Regarding B7, in the assay with human IL-13 [12], the response was half-maximal at 0.023 nM (EC50). Also, the “EC50, HEK293 STAT6 SEAP reporter assay, hIL-13” value in the assay with human IL-13 [13] was found to be 0.63 nM. In addition, the “EC50, HEK293 STAT6 SEAP reporter assay, cIL-13” value with cynomolgous IL-13 [14] is 11.1 nM. For the same molecule, the Kd with cynomolgous IL-13 [15] was 2 nM; in the assay with human IL-13 [16], 0.028 nM.

B8: DOM10-176-535 (other)
VL: DIQMTQSPSSLSASVGDRVTITCRASQWIGPYLNWYQQKPGKAPKPLIYMGYWAPSGVPSRFSGSGSGTDFTLTISSLQPEDFATYYCQQDLYPPFTFGQGTKVEIKR
notes: Vk dAb
For B8, the values for the IC50 with human IL-13 [12], with human IL-13 [9] and with human IL-13 [17] were 1 nM, 7.9 nM and approximately 0.5 nM, respectively. For the same molecule, in assay [7], the IC50, TF-1 proliferation with variant IL-13 (R130Q) came to 7.8 nM. Besides, in the assay with human IL-13 [8], the “IC50, TF-1 proliferation with human IL-13” value was determined as 6 nM. The “ND50, IL-13 induced TF-1 cell proliferation” value with human IL-13 [18] was 0.77 nM.

B9: DOM10-275-1 (other)
VH: EVQLLESGGGLVQPGGSLRLSCAASGFTFDREEMDWVRQAPGKGLEWVSTISPSGRKTYYADSVKGRFTISRDNSKNTLYLQMNSLRAEDTAVYYCAKAYTGFDYWGQGTLVTVSS
notes: VH dAb
With B9, the IC50 in the assay with human IL-13 [19] worked out at 31.3 nM; with human IL-13 [12], 38 nM. In the assay with human IL-13 [20], the Kd was 25 nM and 28 nM and 27 nM. In the assay with human IL-13 [21], the “IC50, IL-13 cell binding assay (so in the source)” value turned out to be 37 nM.

B10: DOM10-275-78 (other)
VH: B9 VH with A23V, R31V, E32A, G55R, K57G, F103R, D104S, Y105L, Q108P
notes: VH dAb
As for B10, the “EC50, HEK293 STAT6 SEAP reporter assay, hIL-13” value in the assay with human IL-13 [13] was found to be 2.5 nM. In the assay with cynomolgous IL-13 [14], the “EC50, HEK293 STAT6 SEAP reporter assay, cIL-13” value is 1.4 nM. For the same molecule, the results for the Kd with cynomolgous IL-13 [15] and with human IL-13 [16] were 0.32 to 0.75 nM and 0.072 to 0.1 nM, respectively.

B11: DOM10-276-15 (other)
VH: B9 VH with D30R, R31D, E32Y, T50S, S54N, R56S, K57E, Y59N, G102S
notes: VH dAb
As to B11, the IC50 in the assay with human IL-13 [12] came to 100 nM. Also, the Kd with human IL-13 [22] amounted to 1.5 nM. Further, the “IC50, IL-13 cell binding assay (so in the source)” value in the assay with human IL-13 [23] was found to be 90 nM.
